Laboratory results taken from US20220226425A1, “METHOD OF TREATING MELANOCORTIN-4 RECEPTOR PATHWAY-ASSOCIATED DISORDERS” (RHYTHM PHARMACEUTICALS, INC., priority 2015, published 2022).

Target: melanocortin 5 receptor (human) (UniProt P33032)
Experiment: cell-based or functional assay

Chain of melanocortin 5 receptor (human) (P33032 whole entry): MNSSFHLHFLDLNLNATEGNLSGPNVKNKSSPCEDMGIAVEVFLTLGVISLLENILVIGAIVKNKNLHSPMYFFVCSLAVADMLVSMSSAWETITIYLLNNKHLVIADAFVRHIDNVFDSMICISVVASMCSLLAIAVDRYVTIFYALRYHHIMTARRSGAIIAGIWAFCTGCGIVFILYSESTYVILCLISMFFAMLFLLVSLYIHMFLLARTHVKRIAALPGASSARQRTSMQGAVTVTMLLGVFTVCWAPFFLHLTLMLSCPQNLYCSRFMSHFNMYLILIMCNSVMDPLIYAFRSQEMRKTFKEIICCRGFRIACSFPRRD

- EC-50 (nM), cAMP accumulation: 1680 nM
Substance: RM-493 (peptide)
